Experimental data: publication PMC9365671, “Synergistic autoinhibition and activation mechanisms control kinesin-1 motor activity” (Cell reports, 2022)

T1: KIF5B-Δhinge (Δ505-610)-mScarlet-StrepII (human, UniProt P33176 1-963, Δ505-610)
T1 construct: KIF5B, human, full length with aa 505-610 deleted (aa 1-504 joined to aa 611-963); also called delta-hinge mutant; delta-hinge KHC mutant; source: Sf9 (baculovirus), purified (Streptactin XT, SEC; the fractions that eluted like the wild type were used); not shown: mScarlet, C-terminal, kept
T1 sequence (looked up): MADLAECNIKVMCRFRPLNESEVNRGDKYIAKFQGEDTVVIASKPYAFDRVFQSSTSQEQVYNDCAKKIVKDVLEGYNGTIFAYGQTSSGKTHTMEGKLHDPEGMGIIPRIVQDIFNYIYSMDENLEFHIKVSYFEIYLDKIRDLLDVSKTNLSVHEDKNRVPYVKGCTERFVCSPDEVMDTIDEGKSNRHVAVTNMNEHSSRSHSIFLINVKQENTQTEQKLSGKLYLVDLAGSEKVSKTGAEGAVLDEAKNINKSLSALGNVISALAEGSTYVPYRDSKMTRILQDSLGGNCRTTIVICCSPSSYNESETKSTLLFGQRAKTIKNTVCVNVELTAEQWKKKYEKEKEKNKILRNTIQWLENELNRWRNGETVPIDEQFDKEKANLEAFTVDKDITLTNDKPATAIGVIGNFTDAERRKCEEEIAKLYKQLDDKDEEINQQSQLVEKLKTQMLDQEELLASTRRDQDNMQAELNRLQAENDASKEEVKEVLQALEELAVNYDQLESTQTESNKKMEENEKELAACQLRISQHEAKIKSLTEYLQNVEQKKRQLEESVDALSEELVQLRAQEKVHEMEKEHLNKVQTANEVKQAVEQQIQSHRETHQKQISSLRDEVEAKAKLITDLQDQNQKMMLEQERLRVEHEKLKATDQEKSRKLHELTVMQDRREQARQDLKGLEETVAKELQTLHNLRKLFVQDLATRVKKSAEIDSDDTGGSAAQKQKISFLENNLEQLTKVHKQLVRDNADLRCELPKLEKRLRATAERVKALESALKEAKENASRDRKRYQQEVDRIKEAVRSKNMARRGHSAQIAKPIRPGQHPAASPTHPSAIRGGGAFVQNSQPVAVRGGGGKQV


Assays:
[1] = molecular target: the molecule itself; test: SEC-MALS; purified full-length KIF5 alone; BioSep SEC-s4000 column, GF150 buffer (25 mM HEPES-KOH, 150 mM KCl, 2 mM MgCl2)
[2] = molecular target: T1, KIF5B-Δhinge (Δ505-610)-mScarlet-StrepII; test: TIRF microscopy on microtubules; 40 nM KIF5B (wild type, mutants or K420B) on MTs with or without 200 nM recombinant KLC1, KLC1-CC or KLC1-TPR added in trans; ATP; relative fluorescence intensity on MTs; details: both partners purified

Binder | stoichiometry N [1] | binding result [2]
full-length human KIF5C-mScarlet-StrepII (natural protein, UniProt O60282 1-957, looked up, kinesin heavy chain KIF5C, human, cDNA BC110287, full length; 2x Prescission protease sites lie between KIF5C and mScarlet; also called KHC; source: Sf9 (baculovirus), purified (Streptactin XT, SEC); also co-expressed with KLC1 and co-purified; not shown: mScarlet, C-terminal, kept) MADPAECSIKVMCRFRPLNEAEILRGDKFIPKFKGDETVVIGQGKPYVFDRVLPPNTTQEQVYNACAKQIVKDVLEGYNGTIFAYGQTSSGKTHTMEGKLHDPQLMGIIPRIAHDIFDHIYSMDENLEFHIKVSYFEIYLDKIRDLLDVSKTNLAVHEDKNRVPYVKGCTERFVSSPEEVMDVIDEGKANRHVAVTNMNEHSSRSHSIFLINIKQENVETEKKLSGKLYLVDLAGSEKVSKTGAEGAVLDEAKNINKSLSALGNVISALAEGTKTHVPYRDSKMTRILQDSLGGNCRTTIVICCSPSVFNEAETKSTLMFGQRAKTIKNTVSVNLELTAEEWKKKYEKEKEKNKTLKNVIQHLEMELNRWRNGEAVPEDEQISAKDQKNLEPCDNTPIIDNIAPVVAGISTEEKEKYDEEISSLYRQLDDKDDEINQQSQLAEKLKQQMLDQDELLASTRRDYEKIQEELTRLQIENEAAKDEVKEVLQALEELAVNYDQKSQEVEDKTRANEQLTDELAQKTTTLTTTQRELSQLQELSNHQKKRATEILNLLLKDLGEIGGIIGTNDVKTLADVNGVIEEEFTMARLYISKMKSEVKSLVNRSKQLESAQMDSNRKMNASERELAACQLLISQHEAKIKSLTDYMQNMEQKRRQLEESQDSLSEELAKLRAQEKMHEVSFQDKEKEHLTRLQDAEEMKKALEQQMESHREAHQKQLSRLRDEIEEKQKIIDEIRDLNQKLQLEQEKLSSDYNKLKIEDQEREMKLEKLLLLNDKREQAREDLKGLEETVSRELQTLHNLRKLFVQDLTTRVKKSVELDNDDGGGSAAQKQKISFLENNLEQLTKVHKQLVRDNADLRCELPKLEKRLRATAERVKALESALKEAKENAMRDRKRYQQEVDRIKEAVRAKNMARRAHSAQIAKPIRPGHYPASSPTAVHAIRGGGGSSSNSTHYQK | 2 | –
6xHis-2xStrepII-sfGFP-KLC1-CC (aa 1-200) (domain or fragment, human, UniProt Q07866 1-200, looked up, kinesin light chain 1, human, aa 1-200 (N-terminal coiled-coil part); also called N-terminal domain of the KLC; source: pET28a construct (E. coli BL21-CodonPlus (DE3)-RIPL), purified (Streptactin XT, SEC on Superdex 200)) MYDNMSTMVYIKEDKLEKLTQDEIISKTKQVIQGLEALKNEHNSILQSLLETLKCLKKDDESNLVEEKSNMIRKSLEMLELGLSEAQVMMALSNHLNAVESEKQKLRAQVRRLCQENQWLRDELANTQQKLQKSEQSVAQLEEEKKHLEFMNQLKKYDDDISPSEDKDTDSTKEPLDDLFPNDEDDPGQGIQQQHSSAAA | – | binds
